Results reported in article PMC11187563, “The importance of tyrosines in multimers of cyclic RGD nonapeptides: towards αvβ6-integrin targeted radiotherapeutics” (RSC Medicinal Chemistry, 2024).
Read-outs that look alike come from different tables or passages of the source.

How the values were obtained:
[1] = Ex vivo biodistribution of 177Lu-labeled peptide tetramers in H2009 xenografted SCID mice; conditions: CB17 SCID, mouse, iv, total radioactivity, H2009 bearing SCID mice; for tissue uptake at 72 h / tissue to tissue ratio at 72 h: 70 pmol, 3 d p.i.; for tissue uptake at 1.5 h / tissue to tissue ratio at 1.5 h: 118 pmol, 90 min p.i.
Protocol: (§1) The biodistribution of the ^177Lu-labeled peptide conjugates was investigated in severe combined immunodeficiency (SCID) mice bearing subcutaneous xenografts of the αvβ6-integrin expressing human lung adenocarcinoma cell line H2009 on their right shoulders. Two representative time points after i.v. administration (p.i.) were evaluated.
(§2) Analytical HPLC was performed on a Shimadzu (Kyoto, Japan) Prominence HPLC system equipped with either a Dr. Maisch ReproSil Pur C18 AQ 150 × 4.6 mm, 5 μm, 120 Å (AC1) or a Phenomenex Kinetex C18 150 × 4.6 mm 5 μm column (AC2). Semipreparative HPLC was performed on a Shimadzu HPLC system equipped with either a Dr. Maisch ReproSil Pur C18 AQ 250 × 10 mm, 5 μm, 120 Å column with 5 mL min^−1 flow (PC1) or a Dr. Maisch ReproSil Pur C18 150 × 30 mm, 5 μm, 120 Å column with 20 mL min^−1 flow (PC2). Solvents for both systems were water (A) and acetonitrile (B) each supplemented with 0.1% (vol) trifluoroacetic acid (TFA). ESI-MS spectra (positive mode) were recorded on a Shimadzu LC-MS 2020 single quadrupol mass spectrometer. Solvents for MS applications were water (A) and acetonitrile (B) each supplemented with 0.1% (vol) formic acid. The other experimental procedures (determination of log D7.4, cultivation of H2009 human lung adenocarcinoma cells, generation of tumor xenografts in CB17 SCID mice, and biodistribution) were performed as described before.[28] All animal experiments have been carried out according to applicable law and institutional guidelines of Technical University of Munich, and were approved by the responsible local authority (Regierung von Oberbayern). The H2009 cells were regularly authenticated and tested for mycoplasma contamination. DOTPI-tetraazide,[43]FF (previously termed AvB6),[29]FY,[34] and YY (also referred to as Tyr2-alkyne)[36] were synthesized as described previously.

[2] = system: αvβ6-integrin expressing human lung adenocarcinoma cell line H2009 xenografts; experiment: as above; conditions: H2009 bearing SCID mice
Protocol: as §1, §2

[3] = H2009 tumor, read-out: Tumor H2009 %IA/g
[4] = adrenals, read-out: Adrenals %IA/g
[5] = heart (myocard), read-out: Heart (myocard) %IA/g
[6] = kidneys, read-out: Kidneys %IA/g
[7] = large intestine (empty), read-out: Large intestine (empty) %IA/g
[8] = pancreas, read-out: Pancreas %IA/g
[9] = small intestine (empty), read-out: Small intestine (empty) %IA/g
[10] = stomach (empty), read-out: Stomach (empty) %IA/g
[11] = tumor/blood, read-out: tumor/organ ratio, Blood
[12] = tumor/heart (myocard), read-out: tumor/organ ratio, Heart (myocard)
[13] = tumor/liver, read-out: tumor/organ ratio, Liver
[14] = tumor/lung, read-out: tumor/organ ratio, Lung
[15] = tumor/pancreas, read-out: tumor/organ ratio, Pancreas
[16] = tumor/spleen, read-out: tumor/organ ratio, Spleen

`CC(C)C[C@@H]1NC(=O)[C@H](CC(=O)O)NC(=O)CNC(=O)[C@H](CCCNC(=N)N)NC(=O)[C@H](Cc2ccccc2)NC(=O)[C@H](CCCCNC(=O)CCC(=O)NCCCC[C@H](NC(=O)[C@H](Cc2ccccc2)NC(=O)CNC(=O)CCc2cn(CCCNC(=O)CCP(=O)(O)CN3CCN(CP(=O)(O)CCC(=O)NCCCn4cc(CCC(=O)NCC(=O)N[C@@H](Cc5ccccc5)C(=O)N[C@@H](CCCCNC(=O)CCC(=O)NCCCC[C@H]5C(=O)N[C@@H](Cc6ccccc6)C(=O)N[C@@H](CCCNC(=N)N)C(=O)NCC(=O)N[C@@H](CC(=O)O)C(=O)N[C@@H](CC(C)C)C(=O)N[C@@H](C)C(=O)N[C@@H](Cc6ccc(O)cc6)C(=O)N6CCC[C@@H]6C(=O)N5C)C(=O)O)nn4)CCN(CP(=O)(O)CCC(=O)NCCCn4cc(CCC(=O)NCC(=O)N[C@@H](Cc5ccccc5)C(=O)N[C@@H](CCCCNC(=O)CCC(=O)NCCCC[C@H]5C(=O)N[C@@H](Cc6ccccc6)C(=O)N[C@@H](CCCNC(=N)N)C(=O)NCC(=O)N[C@@H](CC(=O)O)C(=O)N[C@@H](CC(C)C)C(=O)N[C@@H](C)C(=O)N[C@@H](Cc6ccc(O)cc6)C(=O)N6CCC[C@@H]6C(=O)N5C)C(=O)O)nn4)CCN(CP(=O)(O)CCC(=O)NCCCn4cc(CCC(=O)NCC(=O)N[C@@H](Cc5ccccc5)C(=O)N[C@@H](CCCCNC(=O)CCC(=O)NCCCC[C@H]5C(=O)N[C@@H](Cc6ccccc6)C(=O)N[C@@H](CCCNC(=N)N)C(=O)NCC(=O)N[C@@H](CC(=O)O)C(=O)N[C@@H](CC(C)C)C(=O)N[C@@H](C)C(=O)N[C@@H](Cc6ccc(O)cc6)C(=O)N6CCC[C@@H]6C(=O)N5C)C(=O)O)nn4)CC3)nn2)C(=O)O)N(C)C(=O)[C@H]2CCCN2C(=O)[C@H](Cc2ccc(O)cc2)NC(=O)[C@H](C)NC1=O` [Compound 177Lu-GFK-Y4, metal not drawn] gave a tissue uptake at 72 h [1, 3] of 0.77 %ID/g, a tissue uptake at 1.5 h [1, 3] of 1.74 %ID/g and a tissue uptake at 72 h [1, 4] of 0.25 %ID/g. It also gave a tissue uptake at 1.5 h [1, 4] of 0.95 %ID/g, a tissue uptake at 72 h ([1]; blood, read-out: Blood %IA/g) of 0.02 %ID/g and a tissue uptake at 1.5 h ([1]; blood, read-out: Blood %IA/g) of 0.44 %ID/g. It also gave a tissue uptake at 72 h ([1]; bone, read-out: Bone %IA/g) of 0.25 %ID/g, a tissue uptake at 1.5 h ([1]; bone, read-out: Bone %IA/g) of 0.49 %ID/g and a tissue uptake at 72 h [1, 5] of 0.12 %ID/g. For the same molecule, the tissue uptake at 1.5 h [1, 5] was 0.32 %ID/g, the tissue uptake at 72 h [1, 6] was 169 %ID/g and the tissue uptake at 1.5 h [1, 6] was 274 %ID/g. For the same molecule, the tissue uptake at 72 h [1, 7] was 0.78 %ID/g, the tissue uptake at 1.5 h [1, 7] was 1.76 %ID/g and the tissue uptake at 72 h ([1]; liver, read-out: Liver %IA/g) was 0.48 %ID/g. For the same molecule, the tissue uptake at 1.5 h ([1]; liver, read-out: Liver %IA/g) was 1.16 %ID/g, the tissue uptake at 72 h ([1]; lung, read-out: Lung %IA/g) was 0.5 %ID/g and the tissue uptake at 1.5 h ([1]; lung, read-out: Lung %IA/g) was 2.88 %ID/g. It also gave a tissue uptake at 72 h ([1]; muscle, read-out: Muscle %IA/g) of 0.13 %ID/g, a tissue uptake at 1.5 h ([1]; muscle, read-out: Muscle %IA/g) of 0.26 %ID/g and a tissue uptake at 72 h [1, 8] of 0.08 %ID/g. The tissue uptake at 1.5 h [1, 8] was 0.14 %ID/g, the tissue uptake at 72 h [1, 9] was 0.15 %ID/g and the tissue uptake at 1.5 h [1, 9] was 0.73 %ID/g. It also gave a tissue uptake at 72 h ([1]; spleen, read-out: Spleen %IA/g) of 0.86 %ID/g, a tissue uptake at 1.5 h ([1]; spleen, read-out: Spleen %IA/g) of 0.89 %ID/g and a tissue uptake at 72 h [1, 10] of 2.42 %ID/g. It also gave a tissue uptake at 1.5 h [1, 10] of 3.29 %ID/g, a tissue to tissue ratio at 72 h ([1]; tumor / adrenals, read-out: tumor/organ ratio, Adrenals) of 3.7 and a tissue to tissue ratio at 72 h ([1]; tumor / bone, read-out: tumor/organ ratio, Bone) of 3.2. The tissue to tissue ratio at 72 h ([1]; tumor / large intestine (empty), read-out: tumor/organ ratio, Large intestine (empty)) was 1.4, the tissue to tissue ratio at 72 h ([1]; tumor / muscle, read-out: tumor/organ ratio, Muscle) was 6.9 and the tissue to tissue ratio at 72 h ([1]; tumor / small intestine (empty), read-out: tumor/organ ratio, Small intestine (empty)) was 5.6. It also gave a tissue to tissue ratio at 72 h ([1]; tumor / stomach (empty), read-out: tumor/organ ratio, Stomach (empty)) of 0.4, a tissue to tissue ratio at 1.5 h ([1]; tumor/adrenals, read-out: tumor/organ ratio, Adrenals) of 2.2 and a tissue to tissue ratio at 72 h [1, 11] of 56.1. The tissue to tissue ratio at 1.5 h [1, 11] was 4.3, the tissue to tissue ratio at 1.5 h ([1]; tumor/bone, read-out: tumor/organ ratio, Bone) was 3.6 and the tissue to tissue ratio at 72 h [1, 12] was 6.9. It also gave a tissue to tissue ratio at 1.5 h [1, 12] of 5.5, a tissue to tissue ratio at 1.5 h ([1]; tumor/large intestine (empty), read-out: tumor/organ ratio, Large intestine (empty)) of 1.1 and a tissue to tissue ratio at 72 h [1, 13] of 2. It also gave a tissue to tissue ratio at 1.5 h [1, 13] of 1.7, a tissue to tissue ratio at 72 h [1, 14] of 1.8 and a tissue to tissue ratio at 1.5 h [1, 14] of 0.6. It also gave a tissue to tissue ratio at 1.5 h ([1]; tumor/muscle, read-out: tumor/organ ratio, Muscle) of 7.2, a tissue to tissue ratio at 72 h [1, 15] of 9.9 and a tissue to tissue ratio at 1.5 h [1, 15] of 12.2. It also gave a tissue to tissue ratio at 1.5 h ([1]; tumor/small intestine (empty), read-out: tumor/organ ratio, Small intestine (empty)) of 2.5, a tissue to tissue ratio at 72 h [1, 16] of 1 and a tissue to tissue ratio at 1.5 h [1, 16] of 2.1. For the same molecule, the tissue to tissue ratio at 1.5 h ([1]; tumor/stomach (empty), read-out: tumor/organ ratio, Stomach (empty)) was 0.6, the “tumor/organ ratio, Kidneys” value ([2]; 90 min p.i.) was 0.0 and the “tumor/organ ratio, Kidneys” value ([2]; 3 d p.i.) was 0.0.
